Laboratory results published in US20130072665A1 (Amgen, published 2013).
Blank lines part the entries; values can stand above or below the binder they belong to.

B1: mouse PCSK9 (enzyme, UniProt Q80W65 35-694, looked up, not shown: small tags and cut ends)
chain: QDEDGDYEELMLALPSQEDGLADEAAHVATATFRRCSKEAWRLPGTYIVVLMEETQRLQIEQTAHRLQTRAARRGYVIKVLHIFYDLFPGFLVKMSSDLLGLALKLPHVEYIEEDSFVFAQSIPWNLERIIPAWHQTEEDRSPDGSSQVEVYLLDTSIQGAHREIEGRVTITDFNSVPEEDGTRFHRQASKCDSHGTHLAGVVSGRDAGVAKGTSLHSLRVLNCQGKGTVSGTLIGLEFIRKSQLIQPSGPLVVLLPLAGGYSRILNAACRHLARTGVVLVAAAGNFRDDACLYSPASAPEVITVGATNAQDQPVTLGTLGTNFGRCVDLFAPGKDIIGASSDCSTCFMSQSGTSQAAAHVAGIVARMLSREPTLTLAELRQRLIHFSTKDVINMAWFPEDQQVLTPNLVATLPPSTHETGGQLLCRTVWSAHSGPTRTATATARCAPEEELLSCSSFSRSGRRRGDWIEAIGGQQVCKALNAFGGEGVYAVARCCLVPRANCSIHNTPAARAGLETHVHCHQKDHVLTGCSFHWEVEDLSVRRQPALRSRRQPGQCVGHQAASVYASCCHAPGLECKIKEHGISGPSEQVTVACEAGWTLTGCNVLPGASLTLGAYSVDNLCVARVHDTARADRTSGEATVAAAICCRSRPSAKASWVQ
notes: biotinylated, tag not mentioned, in the hybridoma screen; also called mPCSK9-8xHIS; mPCSK9
B6: 16F12, anti-PCSK9 huIgG4 (antibody, V domains shown)
VH: QVHLVESGGGVVQPGRSLRLSCAASGFTFNSFGMHWVRQAPGKGLEWVALIWSDGSDEYYADSVKGRFTISRDNSKNTLYLQMNSLRAEDTAVYYCARAIAALYYYYGMDVWGQGTTVTVSS
VL: QSVLTQPPSVSAAPGQKVTISCSGSSSNIGNNFVSWYQQLPGTAPKLLIYDYNKRPSGIPDRFSGSKSGTSATLGITGLQTGDEADYYCGTWDSSLSAYVFGTGTRVTVLQ
notes: from hybridoma; also called 16F12 IgG4; 16F12.1

Experiments:
16F12, anti-PCSK9 huIgG4 = target: B6; assay: KinExA solution equilibrium, % free 16F12 (100 pM) against [mPCSK9]
31H4, anti-PCSK9 huIgG4 = target: T1, 31H4, anti-PCSK9 huIgG4; assay: KinExA solution equilibrium, % free 31H4.1 (100 pM) against [mPCSK9]
T1 construct: from hybridoma

[1] = target: T2, PCSK9 V domain (450-692 of SEQ ID NO: 3) (human, UniProt Q8NBP7 450-692); assay: native PAGE gel shift
T2 construct: also called v-domain PCSK9
T2 chain: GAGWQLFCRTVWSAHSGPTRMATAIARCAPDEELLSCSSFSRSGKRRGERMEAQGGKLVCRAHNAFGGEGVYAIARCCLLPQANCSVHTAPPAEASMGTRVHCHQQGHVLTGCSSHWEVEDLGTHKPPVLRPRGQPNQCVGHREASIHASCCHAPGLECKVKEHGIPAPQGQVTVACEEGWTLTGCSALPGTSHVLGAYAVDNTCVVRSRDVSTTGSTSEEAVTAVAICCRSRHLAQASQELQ

mouse PCSK9 [2] = target: B1; assay: BIAcore solution equilibrium
mouse PCSK9 [3] = target: B1; assay: BIAcore, antibody immobilised, pH 7.4
[4] = target: T3, PCSK9 ProCat (31-449 of SEQ ID NO: 3) (human, UniProt Q8NBP7 27-449); assay: domain binding ELISA (coated antibody captures the PCSK9 form; OD650)
T3 construct: From PCSK9 449TEV after rTEV cleavage: GAMG-PCSK9 (31-449)-ENLYFQ; Written as one chain; autocatalysis between 152 and 153 splits pro-domain and catalytic domain; also called procat PCSK9; PCSK9 31-449

[5] = target: T2, PCSK9 V domain (450-692 of SEQ ID NO: 3); assay: as above
[6] = target: T4, human PCSK9 (proprotein convertase subtilisin kexin type 9) (human, UniProt Q8NBP7 31-692); assay: BIAcore kinetic assay 1, His-tagged huPCSK9 captured, pH 5.5
T4 construct: Used untagged, biotinylated, V5/His- or His-tagged depending on the assay; also called hPCSK9; huPCSK9

[7] = target: T4, human PCSK9 (proprotein convertase …); assay: BIAcore kinetic assay 1, His-tagged huPCSK9 captured, pH 7.4
[8] = target: T4, human PCSK9 (proprotein convertase …); assay: BIAcore solution equilibrium, pH 5.5
[9] = target: T4, human PCSK9 (proprotein convertase …); assay: BIAcore solution equilibrium, pH 6.0
[10] = target: T4, human PCSK9 (proprotein convertase …); assay: BIAcore kinetic assay 1, His-tagged huPCSK9 captured, pH 6.0
[11] = target: T4, human PCSK9 (proprotein convertase …); assay: BIAcore solution equilibrium, pH 7.4
[12] = target: T4, human PCSK9 (proprotein convertase …); assay: BIAcore solution equilibrium, pH 7.4; pH 7.4
mouse PCSK9 [13] = target: B1; assay: KinExA solution equilibrium
[14] = target: T2, PCSK9 V domain (450-692 of SEQ ID NO: 3); assay: domain binding ELISA

Binder: B1
IC50 (read off the curve) (16F12, anti-PCSK9 huIgG4): ~0.4 nM | IC50 (read off the curve) (31H4, anti-PCSK9 huIgG4): ~0.6 nM

B4: 1A12 (antibody, V domains shown)
VH: EVQLVESGGGLVQPGGSLRLSCAASGLTFSNFWMSWVRQAPGKGLEWVANIKQDGSEKYYVDSVKGRFTISRDNAKNSLYLQMNSLRAEDTAVYSCTRESNWGFAFDIWGQGTMVTVSS
VL: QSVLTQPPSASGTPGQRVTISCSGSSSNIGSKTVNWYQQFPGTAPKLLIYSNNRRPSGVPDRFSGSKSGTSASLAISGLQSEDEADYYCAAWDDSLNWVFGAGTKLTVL
notes: also called 1A12.2
binding result [4]: binds | binding result [5]: no binding | Kd [6]: 1.4 nM | Kd [7]: 0.4 nM | Kd [8]: 1.1 nM | Kd [9]: 1 nM | Kd [10]: 1.3 nM | Kd [11]: 0.56 nM

Binder: B6
Kd (mouse PCSK9 [13]): 0.223 nM | Kd (mouse PCSK9 [3]): 6.4 nM

More lines, now with the values ahead:

binding result [1]: no binding
B2: 21B12 (antibody, V domains shown)
VH: QVQLVQSGAEVKKPGASVKVSCKASGYTLTSYGISWVRQAPGQGLEWMGWVSFYNGNTNYAQKLQGRGTMTTDPSTSTAYMELRSLRSDDTAVYYCARGYGMDVWGQGTTVTVSS
VL: QSALTQPASVSGSPGQSITISCTGTSSDVGGYNSVSWYQQHPGKAPKLMIYEVSNRPSGVSNRFSGSKSGNTASLTISGLQAEDEADYYCNSYTSTSMVFGGGTKLTVL
notes: lambda light chain; also called ABP 21B12; Ab 21B12

Kd (mouse PCSK9 [2]): 17 nM | Kd (mouse PCSK9 [3]): 460 nM
B3: 21B12, anti-PCSK9 huIgG4 (antibody, V domains shown)
VH: QVQLVQSGAEVKKPGASVKVSCKASGYTLTSYGISWVRQAPGQGLEWMGWVSFYNGNTNYAQKLQGRGTMTTDPSTSTAYMELRSLRSDDTAVYYCARGYGMDVWGQGTTVTVSS
VL: QSALTQPASVSGSPGQSITISCTGTSSDVGGYNSVSWYQQHPGKAPKLMIYEVSNRPSGVSNRFSGSKSGNTASLTISGLQAEDEADYYCNSYTSTSMVFGGGTKLTVLQ
notes: from hybridoma; also called 21B12 IgG4; 21B12.1

Kd [6]: 3.2 nM | Kd [12]: 0.56 nM | Kd [7]: 0.56 nM | Kd [8]: 3.2 nM | Kd [9]: 2.3 nM | Kd [10]: 2.3 nM
B5: 9C9 (antibody, V domains shown)
VH: EVQLVESGGGLVQPGGSLRLSCVVSGFTFSSYWMSWVRQAPGKGLEWVANIKQDGSEKYYVDSVKGRFTISRDNAKNSLYLQMNSLRAEDTAVYYCARESNWGFAFDIWGQGTMVTVSS
VL: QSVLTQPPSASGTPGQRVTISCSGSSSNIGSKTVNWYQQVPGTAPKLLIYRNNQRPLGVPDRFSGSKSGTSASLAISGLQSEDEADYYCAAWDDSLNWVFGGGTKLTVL

binding result [14]: binds
B7: 3C4 (antibody, V domains shown)
VH: QVQLQESGPGLVKPSQTLSLTCTVSGGSISSSDYYWSWIRQHPGKGLEWIGYIYYSGSTYYNPSLKSRITISVDTSKNLFSLKLSSVTAADTAVYYCARGGVTTYYYAMDVWGQGTTVTVSS
VL: DIQMTQSPSSLSASVGDRVTITCRASQRISNYLSWYLQKPGIAPKLLIYAASSLQSGVPSRFSGSGSGTDFTLTISSLQSEDFATYYCQQSYSTPLIFGGGTKVEIK
